Source: US20030082561, “Zinc finger domain recognition code and uses thereof” (published 2003)

Biological target: AL1 ZFP (Clone 1) (artificial)
Test: EMSA; significant binding at 14-35 nM; text prints SEQ ID NO 27 for the bound probe, apparently meaning the G (wild-type) probe SEQ ID NO 26
Conditions: tags: three Sp1C domain 2 framework fingers, pET21-a, E. coli BL21(DE3)pLysS; label: 5'-32P

Sequence of AL1 ZFP (Clone 1) (artificial) (chain, as listed by the source): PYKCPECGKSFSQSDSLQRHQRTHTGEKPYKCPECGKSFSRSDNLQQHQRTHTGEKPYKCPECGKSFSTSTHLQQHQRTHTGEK

B1: AL1 probe G (wild type) (dsDNA)
DNA 1: TATATATAAGTAAGGTAGTATATATA
DNA 2: TATATATACTACCTTACTTATATATA
B1: binds.
